For data set [1], the system named is IGF2BP2 KH34 (IGF2BP2KH34) (Homo sapiens). In words: MST. As to conditions: MST: 50 mM phosphate pH 7.0, 150 mM NaCl, 0.05% Tween 20, room temperature, 20 min incubation, 250 nM labeled RNA.
For data set [2], the system named is IGF2BP2 RRM (IGF2BP2RRM) (Homo sapiens). In words: MST. As to conditions: MST: 50 mM phosphate pH 7.0, 150 mM NaCl, 0.05% Tween 20, room temperature, 20 min incubation, 250 nM labeled RNA.

For orientation: Kd means the free concentration of one partner at which half of the binding sites on the other are occupied at equilibrium, for simple one-to-one binding. A higher Kd goes with a looser complex. Turning to ZIKV 3' NTR, the Kd in data set [1] came out at 418 nM; in data set [2], 1600 nM.

Take ZIKV 5' NTR: the Kd in data set [1] was determined as 203 nM.
